This assay addresses T1, basic region-leucine zipper (B Zip) domain of the transcription factor CCAAT/enhancer binding protein α (C/EBPα) (rat), P05554.
T1 chain: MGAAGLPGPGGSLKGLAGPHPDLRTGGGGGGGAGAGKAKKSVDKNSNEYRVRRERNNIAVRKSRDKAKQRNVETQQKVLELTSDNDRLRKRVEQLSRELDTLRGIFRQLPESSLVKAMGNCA
Put plainly: FRET or BRET. The following applies: remark: other sources report otherwise. Background: BRET reads energy transfer from a luciferase to a nearby fluorophore.

B1: basic region-leucine zipper (B Zip) domain of the transcription factor CCAAT/enhancer binding protein α (C/EBPα), P05554 237-358 (domain or fragment)
chain: MGAAGLPGPGGSLKGLAGPHPDLRTGGGGGGGAGAGKAKKSVDKNSNEYRVRRERNNIAVRKSRDKAKQRNVETQQKVLELTSDNDRLRKRVEQLSRELDTLRGIFRQLPESSLVKAMGNCA
Turning to B1, the donor fluorescence lifetime τm in the presence of the acceptor, mean came out at 2.78 ns.

The values are drawn from PMC4136481.
